Measured values from publication PMC9907115.
Blank lines part the entries; values can stand above or below the substance they belong to.

Assays:
Assay in all cases: cross-linking
[1] = target: OrgB^R21^p^Bpa (OrgB^M45 variant) (S. Typhimurium)
[2] = target: ^3FLAGPrgH (S. Typhimurium) (UniProt P41783)
[3] = target: ^3FLAGSpaO (S. Typhimurium) (UniProt P40699)
Sequence of UniProt P40699 (P40699 whole entry): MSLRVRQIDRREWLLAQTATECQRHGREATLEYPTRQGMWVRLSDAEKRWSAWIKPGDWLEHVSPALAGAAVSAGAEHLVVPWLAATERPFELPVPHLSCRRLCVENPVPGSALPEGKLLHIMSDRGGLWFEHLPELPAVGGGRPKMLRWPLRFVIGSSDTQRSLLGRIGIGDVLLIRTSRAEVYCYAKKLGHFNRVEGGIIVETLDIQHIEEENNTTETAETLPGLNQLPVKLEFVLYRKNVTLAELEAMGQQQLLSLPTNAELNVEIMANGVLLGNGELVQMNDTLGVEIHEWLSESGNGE

Sequence of UniProt P41783 (P41783 whole entry): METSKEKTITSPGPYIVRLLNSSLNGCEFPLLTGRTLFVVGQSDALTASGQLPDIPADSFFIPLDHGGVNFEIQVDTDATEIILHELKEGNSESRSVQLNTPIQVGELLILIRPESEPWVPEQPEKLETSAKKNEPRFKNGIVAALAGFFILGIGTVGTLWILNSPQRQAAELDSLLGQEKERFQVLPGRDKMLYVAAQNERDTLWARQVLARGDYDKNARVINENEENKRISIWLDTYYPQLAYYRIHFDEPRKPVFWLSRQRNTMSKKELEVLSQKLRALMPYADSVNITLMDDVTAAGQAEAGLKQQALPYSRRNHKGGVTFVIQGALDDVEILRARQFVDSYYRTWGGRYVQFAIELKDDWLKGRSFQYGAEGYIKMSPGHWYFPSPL

stoichiometry N [1]: 2
Substance: OrgB^R21^p^Bpa (OrgB^M45 variant) (natural protein)

stoichiometry N (PrgH per OrgA) [2]: 2
Substance: OrgA^S70^p^Bpa/L104^p^Bpa (natural protein)

stoichiometry N (OrgB per SpaO) [3]: 2
Substance: OrgB^K20^p^Bpa (OrgB^M45 variant) (natural protein)
